Experimental data from publication PMC7088246.

Target: recombinant glycosylated HIV-1 IIIB gp120 (baculovirus) (HIV-1 IIIB) (UniProt P04578)
Assay: SPR

Substance | Ka [M⁻¹] | Kd [nM] | kon [M⁻¹ s⁻¹] | koff [s⁻¹]
His-tagged recombinant KAA-1 (natural protein) | 1.48e+09 | 0.677 | 871000 | 
recombinant KAA-1 (His tag removed by thrombin) (natural protein) | 1.61e+09 | 0.622 |  | 0.000529
